EP2842965A1, “Neuromedin U analogs comprising serum albumin binding amino acid residue” (Gubra ApS, priority 2013, dated 2015)
Starred links: 1 amine or outer side, 2 acyl side, 3 side chain; linkers in the order of their positions; H or OH if unused. Residues, ends and D or L forms follow the SMILES beside them. Groups on a side chain read outwards from the residue. No end group written: not given here. *: point of attachment. γGlu = O=C(O)[C@H](CCC(=O)[*:2])N[*:1]; Palmitoyl = CCCCCCCCCCCCCCCC(=O)*

T1: Neuromedin U receptor 1 (UniProt Q9HB89 1-426, limits assumed)
T1 sequence (looked up): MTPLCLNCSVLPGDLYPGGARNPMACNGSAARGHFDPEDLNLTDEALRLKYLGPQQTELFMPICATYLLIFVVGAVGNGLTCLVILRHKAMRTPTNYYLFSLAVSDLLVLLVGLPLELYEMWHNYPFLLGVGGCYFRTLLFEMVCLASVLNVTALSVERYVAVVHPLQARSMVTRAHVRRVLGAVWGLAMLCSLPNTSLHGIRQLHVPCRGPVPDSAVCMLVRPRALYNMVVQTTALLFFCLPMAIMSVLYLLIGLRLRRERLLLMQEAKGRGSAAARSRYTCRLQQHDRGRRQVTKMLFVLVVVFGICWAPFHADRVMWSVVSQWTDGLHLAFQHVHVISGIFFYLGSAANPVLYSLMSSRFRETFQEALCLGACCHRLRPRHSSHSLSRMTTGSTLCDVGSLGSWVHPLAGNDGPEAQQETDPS

B1: SEQ ID NO 5 (NMU analog acylated at K15) (peptide)
peptide: FRVDEEFQSPFASQK([γGlu-Palmitoyl])RGYFLFRPRN-NH2
modifications: N-terminus assumed
SMILES: CCCCCCCCCCCCCCCC(=O)N[C@@H](CCC(=O)NCCCC[C@H](NC(=O)[C@H](CCC(N)=O)NC(=O)[C@H](CO)NC(=O)[C@H](C)NC(=O)[C@H](Cc1ccccc1)NC(=O)[C@@H]1CCCN1C(=O)[C@H](CO)NC(=O)[C@H](CCC(N)=O)NC(=O)[C@H](Cc1ccccc1)NC(=O)[C@H](CCC(=O)O)NC(=O)[C@H](CCC(=O)O)NC(=O)[C@H](CC(=O)O)NC(=O)[C@@H](NC(=O)[C@H](CCCNC(=N)N)NC(=O)[C@@H](N)Cc1ccccc1)C(C)C)C(=O)N[C@@H](CCCNC(=N)N)C(=O)NCC(=O)N[C@@H](Cc1ccc(O)cc1)C(=O)N[C@@H](Cc1ccccc1)C(=O)N[C@@H](CC(C)C)C(=O)N[C@@H](Cc1ccccc1)C(=O)N[C@@H](CCCNC(=N)N)C(=O)N1CCC[C@H]1C(=O)N[C@@H](CCCNC(=N)N)C(=O)N[C@@H](CC(N)=O)C(N)=O)C(=O)O
B2: SEQ ID NO 8 (NMU analog acylated at K13) (peptide)
peptide: FRVDEEFQSPFAK([γGlu-Palmitoyl])QSRGYFLFRPRN-NH2
modifications: N-terminus assumed
SMILES: CCCCCCCCCCCCCCCC(=O)N[C@@H](CCC(=O)NCCCC[C@H](NC(=O)[C@H](C)NC(=O)[C@H](Cc1ccccc1)NC(=O)[C@@H]1CCCN1C(=O)[C@H](CO)NC(=O)[C@H](CCC(N)=O)NC(=O)[C@H](Cc1ccccc1)NC(=O)[C@H](CCC(=O)O)NC(=O)[C@H](CCC(=O)O)NC(=O)[C@H](CC(=O)O)NC(=O)[C@@H](NC(=O)[C@H](CCCNC(=N)N)NC(=O)[C@@H](N)Cc1ccccc1)C(C)C)C(=O)N[C@@H](CCC(N)=O)C(=O)N[C@@H](CO)C(=O)N[C@@H](CCCNC(=N)N)C(=O)NCC(=O)N[C@@H](Cc1ccc(O)cc1)C(=O)N[C@@H](Cc1ccccc1)C(=O)N[C@@H](CC(C)C)C(=O)N[C@@H](Cc1ccccc1)C(=O)N[C@@H](CCCNC(=N)N)C(=O)N1CCC[C@H]1C(=O)N[C@@H](CCCNC(=N)N)C(=O)N[C@@H](CC(N)=O)C(N)=O)C(=O)O
B3: SEQ ID NO 11 (NMU analog acylated at K9) (peptide)
peptide: FRVDEEFQK([γGlu-Palmitoyl])PFASQSRGYFLFRPRN-NH2
modifications: N-terminus assumed
SMILES: CCCCCCCCCCCCCCCC(=O)N[C@@H](CCC(=O)NCCCC[C@H](NC(=O)[C@H](CCC(N)=O)NC(=O)[C@H](Cc1ccccc1)NC(=O)[C@H](CCC(=O)O)NC(=O)[C@H](CCC(=O)O)NC(=O)[C@H](CC(=O)O)NC(=O)[C@@H](NC(=O)[C@H](CCCNC(=N)N)NC(=O)[C@@H](N)Cc1ccccc1)C(C)C)C(=O)N1CCC[C@H]1C(=O)N[C@@H](Cc1ccccc1)C(=O)N[C@@H](C)C(=O)N[C@@H](CO)C(=O)N[C@@H](CCC(N)=O)C(=O)N[C@@H](CO)C(=O)N[C@@H](CCCNC(=N)N)C(=O)NCC(=O)N[C@@H](Cc1ccc(O)cc1)C(=O)N[C@@H](Cc1ccccc1)C(=O)N[C@@H](CC(C)C)C(=O)N[C@@H](Cc1ccccc1)C(=O)N[C@@H](CCCNC(=N)N)C(=O)N1CCC[C@H]1C(=O)N[C@@H](CCCNC(=N)N)C(=O)N[C@@H](CC(N)=O)C(N)=O)C(=O)O
B4: SEQ ID NO 14 (NMU analog acylated at K6) (peptide)
peptide: FRVDEK([γGlu-Palmitoyl])FQSPFASQSRGYFLFRPRN-NH2
modifications: N-terminus assumed
SMILES: CCCCCCCCCCCCCCCC(=O)N[C@@H](CCC(=O)NCCCC[C@H](NC(=O)[C@H](CCC(=O)O)NC(=O)[C@H](CC(=O)O)NC(=O)[C@@H](NC(=O)[C@H](CCCNC(=N)N)NC(=O)[C@@H](N)Cc1ccccc1)C(C)C)C(=O)N[C@@H](Cc1ccccc1)C(=O)N[C@@H](CCC(N)=O)C(=O)N[C@@H](CO)C(=O)N1CCC[C@H]1C(=O)N[C@@H](Cc1ccccc1)C(=O)N[C@@H](C)C(=O)N[C@@H](CO)C(=O)N[C@@H](CCC(N)=O)C(=O)N[C@@H](CO)C(=O)N[C@@H](CCCNC(=N)N)C(=O)NCC(=O)N[C@@H](Cc1ccc(O)cc1)C(=O)N[C@@H](Cc1ccccc1)C(=O)N[C@@H](CC(C)C)C(=O)N[C@@H](Cc1ccccc1)C(=O)N[C@@H](CCCNC(=N)N)C(=O)N1CCC[C@H]1C(=O)N[C@@H](CCCNC(=N)N)C(=O)N[C@@H](CC(N)=O)C(N)=O)C(=O)O
B5: SEQ ID NO 17 (NMU analog acylated at K4) (peptide)
peptide: FRVK([γGlu-Palmitoyl])EEFQSPFASQSRGYFLFRPRN-NH2
modifications: N-terminus assumed
SMILES: CCCCCCCCCCCCCCCC(=O)N[C@@H](CCC(=O)NCCCC[C@H](NC(=O)[C@@H](NC(=O)[C@H](CCCNC(=N)N)NC(=O)[C@@H](N)Cc1ccccc1)C(C)C)C(=O)N[C@@H](CCC(=O)O)C(=O)N[C@@H](CCC(=O)O)C(=O)N[C@@H](Cc1ccccc1)C(=O)N[C@@H](CCC(N)=O)C(=O)N[C@@H](CO)C(=O)N1CCC[C@H]1C(=O)N[C@@H](Cc1ccccc1)C(=O)N[C@@H](C)C(=O)N[C@@H](CO)C(=O)N[C@@H](CCC(N)=O)C(=O)N[C@@H](CO)C(=O)N[C@@H](CCCNC(=N)N)C(=O)NCC(=O)N[C@@H](Cc1ccc(O)cc1)C(=O)N[C@@H](Cc1ccccc1)C(=O)N[C@@H](CC(C)C)C(=O)N[C@@H](Cc1ccccc1)C(=O)N[C@@H](CCCNC(=N)N)C(=O)N1CCC[C@H]1C(=O)N[C@@H](CCCNC(=N)N)C(=O)N[C@@H](CC(N)=O)C(N)=O)C(=O)O
B6: Human neuromedin U (peptide)
peptide: FRVDEEFQSPFASQSRGYFLFRPRN-NH2

Molecular target: T2, Neuromedin U receptor 2 (NMUR2) (Homo sapiens, UniProt Q9GZQ4)
T2 construct: expressed in transfected cells; host or cells: HEK293 cells, transient calcium phosphate transfection; the empty-vector control is pcDNA3
Assay: Functional assay (IP3 SPA-ysi assay) in HEK293 cells transfected with NMUR2
Type: cell-based
Details: HEK293 cells transiently transfected with NMUR2; head says cAMP, method describes IP3 SPA readout
Method: All compounds were dissolved in dimethyl sulfoxide (DMSO), and then water was added (total DMSO conc. was 80%). The stock concentration was 1 mM for all the compounds. Stocks were alliquoted and frozen -20°C.
The day before each assay a new standard row was prepared by dilution of the stock solution in assay buffer (1 mM acetic acid + 0.1% bovine serum albumin (BSA)). The following concentrations were prepared (depending on the ligand potency): 10^-5, 10^-6, 10^-7, 10^-7.5, 10^-8, 10^-8.5, 10^-9, 10^-10, 10^-11, 10^-12 M.
Cell cultures: The HEK293 cells are grown in (DMEM31966 glutamax supplemented with 10% FBS (fetal bovine serum) and 1% penicillin G and streptomycin) and incubated at 37°C with 10% CO2 in a humidified atmosphere. The cells were split as follows. HEK293 cells approximately 80% confluent was used. The cells were removed from the bottom of the bottle by removing the media (DMEM31966 glutamax supplemented with 10% FBS and 1% penicillin G and streptomycin), rinsed with 5 mL phosphate buffered saline (PBS) and shaken gently. The PBS was removed and cells were released from the bottom with trypsin (1-2 mL) and incubated for 2-3 min. The flasks were then turned gently to ensure complete release of the cells from the bottom. Then media was added to the cells, (5-8 mL was used to rinse the cells of the bottom, this process was repeated approximately 4 times using the same media). Cell suspension was then transferred to a new bottle (approximately 4 × 10^6 cells per 175 cm^2 flask) and 20 mL media was added. Cells were incubated at 37°C with 10% CO2 in a humidified atmosphere.
Transfection of cells: HEK293 cells were seeded out at the density of 8 × 10^6 cells per 175 cm^2 flask 1 day prior to the transfection. Before transfection of cells, the culture medium was aspirated and half of the standard volume was added. 40 µg receptor-containing plasmid (Neuromedin U receptor 1 (NMUR1) or Neuromedin U receptor 2 (NMUR2)) or "empty" vector plasmid (pcDNA3), as a negative control, was mixed with 60 µL […] CaCl2 and Tris-EDTA (TE) buffer (10 mM tris(hydroxymethyl)aminomethane hydrochloride (Tris HCl), 1 mM ethylenedinitrilotetraacetic acid (EDTA), pH 7.5) to a total volume of 480 µL. The mixture was added drop-wise to another tube containing 480 µL 2 × HEPES buffered saline (HBS buffer) (280 mM NaCl, 50 mM 4-(2-Hydroxyethyl)piperazine-1-ethanesulfonic acid (HEPES), 1.5 mM NaHPO4, pH 7.2) and left for 45 min at room temperature for DNA precipitation. Afterwards, the precipitate was added carefully to the cells and cells were incubated for 5 hours at normal culture conditions. The transfection was stopped by change of the DNA-containing medium with 20 mL of fresh cell culture medium.
Seeding of the cells in 96 well plates: One day after transfection, cells were harvested using trypsin as described above. The cells were seeded in a poly-D-lysine coated clear 96 well plate. 100 µL cell suspension 350.000 cells/mL was added. 3H-myo-inositol (5µL/mL) was added to each well yielding a concentration of 35000 cells/well. The cells were incubated overnight before assay procedure the following day.
IP3 SPA-ysi assay: The media was removed and the plates were washed with 200 µL of Hank's balanced salt solution (HBSS) (Gibco, Life Technologies). 100 µL of HBSS/10 mM LiCl was added and the plates were incubated 15 min at 37°C. 5 µL ligand was added to each well and the plate was incubated at 37°C for 70-90 min (incubation time was approximately 1 h and 16 min for all plates). The plates were placed on ice and 50 µL formic acid (10 mM) was added to each well. The plates was left on ice for at least 30 min. 20 µL was then transferred to a white 96 well plate and 80 µL yttrium silicate (YSi) SPA-beads RPNQ0010 (Perkin Elmer) solution (0.0125 g/mL) is added to each well. The plates were sealed and shaken on high speed for 30 min, then centrifuged for 5 min at 1500 rpm and counted with 8 hours delay in the top counter. […]

T2 sequence (Q9GZQ4 whole entry): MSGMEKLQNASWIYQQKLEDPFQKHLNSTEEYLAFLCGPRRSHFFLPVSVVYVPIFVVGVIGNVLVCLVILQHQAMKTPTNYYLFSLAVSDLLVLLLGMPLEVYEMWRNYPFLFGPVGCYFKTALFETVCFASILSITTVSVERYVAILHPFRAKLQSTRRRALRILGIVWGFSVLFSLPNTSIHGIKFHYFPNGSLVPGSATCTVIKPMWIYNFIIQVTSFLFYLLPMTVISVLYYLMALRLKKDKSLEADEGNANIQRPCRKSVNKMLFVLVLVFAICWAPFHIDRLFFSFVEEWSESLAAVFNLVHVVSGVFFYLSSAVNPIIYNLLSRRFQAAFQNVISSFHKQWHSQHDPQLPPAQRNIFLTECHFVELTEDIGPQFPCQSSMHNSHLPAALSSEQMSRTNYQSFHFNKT

EC50 [nM] | Molecule
94.3 | CCCCCCCCCCCCCCCC(=O)N[C@@H](CCC(=O)NCCCC[C@H](NC(=O)[C@H](CCC(N)=O)NC(=O)[C@H](Cc1ccccc1)NC(=O)[C@H](CCC(=O)O)NC(=O)[C@H](CCC(=O)O)NC(=O)[C@H](CC(=O)O)NC(=O)[C@@H](NC(=O)[C@H](CCCNC(=N)N)NC(=O)[C@@H](N)Cc1ccccc1)C(C)C)C(=O)N1CCC[C@H]1C(=O)N[C@@H](Cc1ccccc1)C(=O)N[C@@H](C)C(=O)N[C@@H](CO)C(=O)N[C@@H](CCC(N)=O)C(=O)N[C@@H](CO)C(=O)N[C@@H](CCCNC(=N)N)C(=O)NCC(=O)N[C@@H](Cc1ccc(O)cc1)C(=O)N[C@@H](Cc1ccccc1)C(=O)N[C@@H](CC(C)C)C(=O)N[C@@H](Cc1ccccc1)C(=O)N[C@@H](CCCNC(=N)N)C(=O)N1CCC[C@H]1C(=O)N[C@@H](CCCNC(=N)N)C(=O)N[C@@H](CC(N)=O)C(N)=O)C(=O)O [SEQ ID NO 11] (H-FRVDEEFQK([γGlu-Palmitoyl])PFASQSRGYFLFRPRN-NH2)
4.26 | H-FRVDEEFQSPFASQSRGYFLFRPRN-NH2 [Human NMU, reference compound]

Molecular target: T1, Neuromedin U receptor 1
Assay: cell-based or functional assay
Details: not given

NMUR1 cAMP EC50 [nM] | Molecule
195 | B1
114 | B2
74 | B3
51.5 | B4
45.5 | B5
2.57 | B6
